{
  "source": "patent US8889621B2",
  "about": "“Inhibiting binding of FGF23 to the binary FGFR-Klotho complex for the treatment of hypophosphatemia” (New York University, priority 2009, dated 2014)",
  "molecules": {"B1": {"name": "FGF23^180-251: 72-amino acid C-terminal tail of human FGF23 (S180 to I251), expressed in E. coli (protein, listed as Homo sapiens)", "chain": "SAEDDSERDPLNVLKPRARMTPAPASCSQELPSAEDNSPMASDPLGVVRGGRVNTHAGGTGPEGCRPFAKFI"}},
  "key": {"βKlotho-FGF19": {"molecular_target": "T1, βKlotho-FGF19 (Mus musculus, UniProt Q99N32)", "T1 construct": "the ectodomain of murine βKlotho (F53 to L995) was expressed in HEK293 cells; FLAG (C); made in house; host or cells: HEK293 (βKlotho ectodomain); E. coli (FGF19)", "T1 sequence (Q99N32 53-995)": "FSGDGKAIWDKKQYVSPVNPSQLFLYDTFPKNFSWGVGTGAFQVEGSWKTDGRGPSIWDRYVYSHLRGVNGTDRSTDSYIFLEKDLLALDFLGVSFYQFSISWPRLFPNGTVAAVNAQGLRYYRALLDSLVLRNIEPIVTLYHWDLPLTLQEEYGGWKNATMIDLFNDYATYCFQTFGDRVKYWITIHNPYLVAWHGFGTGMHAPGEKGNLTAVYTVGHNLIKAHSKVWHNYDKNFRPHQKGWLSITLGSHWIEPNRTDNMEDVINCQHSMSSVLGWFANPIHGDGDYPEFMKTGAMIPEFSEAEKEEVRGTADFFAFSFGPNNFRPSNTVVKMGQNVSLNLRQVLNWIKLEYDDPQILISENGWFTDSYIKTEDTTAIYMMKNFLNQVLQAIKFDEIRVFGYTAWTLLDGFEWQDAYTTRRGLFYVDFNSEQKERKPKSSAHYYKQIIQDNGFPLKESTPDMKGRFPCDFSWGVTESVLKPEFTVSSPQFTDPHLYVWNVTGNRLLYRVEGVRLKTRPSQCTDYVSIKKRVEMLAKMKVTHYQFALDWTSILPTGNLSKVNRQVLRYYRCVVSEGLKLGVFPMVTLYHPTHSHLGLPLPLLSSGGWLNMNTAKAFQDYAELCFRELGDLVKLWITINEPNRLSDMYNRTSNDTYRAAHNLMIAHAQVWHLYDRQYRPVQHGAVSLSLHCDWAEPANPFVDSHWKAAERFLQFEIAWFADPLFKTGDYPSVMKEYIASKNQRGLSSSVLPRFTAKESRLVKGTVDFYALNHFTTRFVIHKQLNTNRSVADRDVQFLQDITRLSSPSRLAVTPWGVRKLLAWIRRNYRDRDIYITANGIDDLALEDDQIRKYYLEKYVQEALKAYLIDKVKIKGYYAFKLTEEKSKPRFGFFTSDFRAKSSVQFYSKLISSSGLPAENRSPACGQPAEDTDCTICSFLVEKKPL", "assay": "SPR specificity: βKlotho binding to immobilized FGF19^23-216", "parameters": "species or system murine βKlotho, human FGF19", "details": "molar ratio of 2:1 to βKlotho"}, "FGFR1c-βKlotho-FGF19": {"molecular_target": "T2, FGFR1c-βKlotho-FGF19 (UniProt P11362+Q99N32)", "T2 construct": "the ectodomain of murine βKlotho (F53 to L995) was expressed in HEK293 cells; FLAG (C); made in house; host or cells: E. coli (FGFR1c, FGF19); HEK293 (βKlotho ectodomain)", "T2 sequence (P11362 142-365)": "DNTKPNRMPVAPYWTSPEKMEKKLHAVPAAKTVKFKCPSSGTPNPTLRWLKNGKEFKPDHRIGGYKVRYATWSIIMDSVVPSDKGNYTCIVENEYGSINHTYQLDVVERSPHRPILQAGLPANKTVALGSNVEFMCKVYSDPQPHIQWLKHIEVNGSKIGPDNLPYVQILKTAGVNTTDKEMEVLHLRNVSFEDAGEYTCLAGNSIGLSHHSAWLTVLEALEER", "T2 sequence (Q99N32 53-995)": "T1 sequence (Q99N32 53-995)", "assay": "SPR specificity: FGFR1c-βKlotho binding to immobilized FGF19^23-216", "parameters": "species or system human FGFR1c, murine βKlotho, human FGF19", "details": "10-fold molar excess over FGFR1c-βKlotho"}},
  "note": "“Also recorded” adds a separate entry of the source.",
  "data": [
    {"molecule": "B1", "values": [
      {"measurement": "inhibition of βKlotho binding to immobilized FGF19", "setting": "βKlotho-FGF19", "value": "failed to inhibit; also recorded: no inhibition"},
      {"measurement": "inhibition of FGFR1c-βKlotho binding to immobilized FGF19", "setting": "FGFR1c-βKlotho-FGF19", "value": "did not affect; also recorded: no inhibition"}
    ]}
  ]
}
